According to patent publication US20120165265A1, “Calcium Signaling Modulators Involving STIM and ORAI Proteins” (priority 2009, published 2012):

Target: eGFP-myc-Orai1 (UniProt Q96D31)
Assay: cell-based or functional assay

Chain of eGFP-myc-Orai1 (Q96D31 whole entry): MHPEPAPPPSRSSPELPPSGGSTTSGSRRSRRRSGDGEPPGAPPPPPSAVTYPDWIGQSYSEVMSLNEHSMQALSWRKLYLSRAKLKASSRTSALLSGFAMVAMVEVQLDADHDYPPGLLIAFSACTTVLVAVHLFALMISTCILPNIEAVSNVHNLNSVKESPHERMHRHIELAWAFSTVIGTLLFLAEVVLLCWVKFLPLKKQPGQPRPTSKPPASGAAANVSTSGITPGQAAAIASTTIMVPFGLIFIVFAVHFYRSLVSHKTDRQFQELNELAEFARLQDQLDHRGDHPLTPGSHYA

A diffusion coefficient fitted to FRAP of a single cell expressing eGFP-Orai1 with CAD of 0.026 µm^2/s, an effective diffusion coefficient (D) of GFP-Orai1 co-expressed with CAD, FRAP in HEK 293 cells of 0.036 µm^2/s and a mobile fraction of GFP-Orai1 co-expressed with CAD, FRAP of 87% were found for mCh-CAD (from UniProt Q13586 342-448) in this work. The slowing of Orai1 diffusion by CAD, FRAP was 2 fold.
